In patent publication US4734420A, “Anti-hypertensive agents” (priority 1980, dated 1988) one finds Km data, which are given here for one protein.

Substrate in this data set: CC(C)C[C@H](NC(=O)[C@H](Cc1cnc[nH]1)NC(=O)CNC(=O)c1ccccc1)C(=O)O
Nature of the data set: purified protein, by the assay type. To be noted: other: substrate hippuryl-His-Leu, human urinary ACE, pH 8.0. In kind it is biochemical. An excerpt: The role of ACE in the pathogenesis of hypertension has prompted a search for inhibitors of the enzyme that could act as antihypertensive drugs. See for example U.S. Pat. Nos. 3,891,616, 3,947,575, 4,052,511 and 4,053,651. […]. No. 4,046,889 to Ondetti et al., issued Sept. 6, 1977, and in scientific articles by Cushman, D. W. et al., Biochemistry 16, 5484 (1977), and by Ondetti, M. et al., Science 196, 441 (1977). […]. These factors include the source of enzyme, its purity, the substrate used and its concentration, and the composition of the assay buffer. All I50 data reported herein have been performed with the same assay system and same enzyme (human urinary ACE) and with an approximately 1/2 Km level of substrate and are therefore internally consistent. Discrepancies with data obtained by other workers may be observed. Indeed such discrepancies do exist in the literature, for unknown reasons. See, for example, the I50 values for BPP9a reported by Cushman, D. W., et al., Experientia 29, 1032 (1973) and by Dorer, F. E., et al., Biochim. Biophys. Acta 429, 220 (1976).
The inhibitory potency of N^α -[3-(L-α-glutamylthio)-2-D-methyl-propanoyl]-L-proline in vitro was measured in the following assay. […] The enzyme was assayed in 0.05M Hepes buffer, pH 8.0 containing 0.1M NaCl and 0.75M Na2 SO4. […]

B1: Human urinary ACE (Homo sapiens) (protein)
chain: LDPGLQPGNFSADEAGAQLFAQSYNSSAEQVLFQSVAASWAHDTNITAENARRQEEAALLSQEFAEAWGQKAKELYEPIWQNFTDPQLRRIIGAVRTLGSANLPLAKRQQYNALLSNMSRIYSTAKVCLPNKTATCWSLDPDLTNILASSRSYAMLLFAWEGWHNAAGIPLKPLYEDFTALSNEAYKQDGFTDTGAYWRSWYNSPTFEDDLEHLYQQLEPLYLNLHAFVRRALHRRYGDRYINLRGPIPAHLLGDMWAQSWENIYDMVVPFPDKPNLDVTSTMLQQGWNATHMFRVAEEFFTSLELSPMPPEFWEGSMLEKPADGREVVCHASAWDFYNRKDFRIKQCTRVTMDQLSTVHHEMGHIQYYLQYKDLPVSLRRGANPGFHEAIGDVLALSVSTPEHLHKIGLLDRVTNDTESDINYLLKMALEKIAFLPFGYLVDQWRWGVFSGRTPPSRYNFDWWYLRTKYQGICPPVTRNETHFDAGAKFHVPNVTPYIRYFVSFVLQFQFHEALCKEAGYEGPLHQCDIYRSTKAGAKLRKVLQAGSSRPWQEVLKDMVGLDALDAQPLLKYFQPVTQWLQEQNQQNGEVLGWPEYQWHPPLPDNYPEGIDLVTDEAEASKFVEEYDRTSQVVWNEYAEANWNYNTNITTETSKILLQKNMQIANHTLKYGTQARKFDVNQLQNTTIKRIIKKVQDLERAALPAQELEEYNKILLDMETTYSVATVCHPNGSCLQLEPDLTNVMATSRKYEDLLWAWEGWRDKAGRAILQFYPKYVELINQAARLNGYVDAGDSWRSMYETPSLEQDLERLFQELQPLYLNLHAYVRRALHRHYGAQHINLEGPIPAHLLGNMWAQTWSNIYDLVVPFPSAPSMDTTEAMLKQGWTPRRMFKEADDFFTSLGLLPVPPEFWNKSMLEKPTDGREVVCHASAWDFYNGKDFRIKQCTTVNLEDLVVAHHEMGHIQYFMQYKDLPVALREGANPGFHEAIGDVLALSVSTPKHLHSLNLLSSEGGSDEHDINFLMKMALDKIAFIPFSYLVDQWRWRVFDGSITKENYNQEWWSLRLKYQGLCPPVPRTQGDFDPGAKFHIPSSVPYIRYFVSFIIQFQFHEALCQAAGHTGPLHKCDIYQSKEAGQRLATAMKLGFSRPWPEAMQLITGQPNMSASAMLSYFKPLLDWLRTENELHGEKLGWPQYNWTPNSAR
notes: from tissue; host or cells: human urine
Turning to B1, the Km came to 200 µM.

One may read the Km as the concentration of substrate that gives half-maximal velocity.
